Assay results published in PMC9352680, “A comprehensive thermodynamic model for RNA binding by the Saccharomyces cerevisiae Pumilio protein PUF4”.
Residue numbers refer to the chain shown, from its start. Names may count otherwise.

T1: PUF4 RNA-binding domain (Saccharomyces cerevisiae, UniProt P25339 537-888)
T1 sequence: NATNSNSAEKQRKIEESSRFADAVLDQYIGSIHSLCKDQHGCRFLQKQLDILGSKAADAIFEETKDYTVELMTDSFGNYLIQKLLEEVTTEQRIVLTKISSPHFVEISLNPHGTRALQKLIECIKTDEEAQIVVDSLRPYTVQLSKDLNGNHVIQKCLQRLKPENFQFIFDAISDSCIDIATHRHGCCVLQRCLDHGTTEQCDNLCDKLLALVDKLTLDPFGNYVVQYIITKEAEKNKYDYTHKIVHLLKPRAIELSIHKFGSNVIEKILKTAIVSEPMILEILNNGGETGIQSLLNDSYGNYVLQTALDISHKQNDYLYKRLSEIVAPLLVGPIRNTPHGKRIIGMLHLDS

B1: Ic_S4_P5E.1_K5.1_C5.1_H5.1_A5.1_[T5C]_[A7C]_F5.1_[T8A]_[T9G]_[A10C]_T5.1 (ssRNA)
RNA: UUUGACAACUGAUCGUUCUUUCUUGUACUCAGCUUCUUUCUCGAUCAGUUGUCUUU
B2: Ic_S4_P5E.1_K5.1_C5.1_H5.1_A5.1_[T5A]_[T6C]_[A7C]_F5.1_[T9A]_[A10G]_T5.1 (ssRNA)
RNA: B1 RNA with C28A, U29C, A31U, G32A, C33G
B3: Ic_S4_P5E.1_K5.1_C5.1_H5.1_A5.1_[T5A]_[T6A]_[A7C]_F5.1_[T8C]_[A10C]_T5.1 (ssRNA)
RNA: B1 RNA with C28A, U29A, A31C, G32U
B4: Ic_S4_P5E.1_K5.1_C5.1_H5.1_A5.1_[T6C]_[A7C]_F5.1_[T8C]_[T9C]_[A10G]_T5.1 (ssRNA)
RNA: B1 RNA with C28U, U29C, A31C, G32C, C33G
B5: Ic_S4_P5E.1_K5.1_C5.1_H5.1_A5.1_[A7C]_F5.1_[T8C]_[T9C]_T5.1 (ssRNA)
RNA: B1 RNA with C28U, A31C, G32C, C33A
B6: Ic_S4_P5E.1_K5.1_C5.1_H5.1_A5.1_[T5G]_[A7C]_F5.1_[T8G]_[A10G]_T5.1 (ssRNA)
RNA: B1 RNA with C28G, A31G, G32U, C33G
B7: Ic_S4_P5E.1_K5.1_C5.1_H5.1_A5.1_[T5C]_[T6C]_[A7T]_F5.1_[A10T]_T5.1 (ssRNA)
RNA: B1 RNA with U29C, C30U, A31U, G32U, C33U
B8: Ic_S4_P5E.1_K5.1_C5.1_H5.1_A5.1_[T6A]_[A7T]_F5.1_[T8A]_[T9A]_T5.1 (ssRNA)
RNA: B1 RNA with C28U, U29A, C30U, G32A, C33A
B9: Ic_S4_P5E.1_K5.1_C5.1_H5.1_A5.1_[T5A]_F5.1_[A10G]_T5.1 (ssRNA)
RNA: B1 RNA with C28A, C30A, A31U, G32U, C33G
B10: Ic_S4_P5E.1_K5.1_C5.1_H5.1_A5.1_[T5G]_[A7C]_F5.1_[T8G]_T5.1 (ssRNA)
RNA: B1 RNA with C28G, A31G, G32U, C33A
B11: Ic_S4_P5E.1_K5.1_C5.1_H5.1_A5.1_[T5C]_[T6A]_[A7T]_F5.1_[T8G]_[A10G]_T5.1 (ssRNA)
RNA: B1 RNA with U29A, C30U, A31G, G32U, C33G
B12: Ic_S4_P5E.1_K5.1_C5.1_H5.1_A5.1_[T6A]_[A7C]_F5.1_[T8C]_[T9A]_[A10T]_T5.1 (ssRNA)
RNA: B1 RNA with C28U, U29A, A31C, G32A, C33U
B13: Ic_S4_P5E.1_K5.1_C5.1_H5.1_A5.1_[T5C]_F5.1_[T8C]_[T9G]_[A10C]_T5.1 (ssRNA)
RNA: B1 RNA with C30A, A31C
B14: Ic_S4_P5E.1_K5.1_C5.1_H5.1_A5.1_[A7C]_F5.1_[T8G]_[A10G]_T5.1 (ssRNA)
RNA: B1 RNA with C28U, A31G, G32U, C33G
B15: Ic_S4_P5E.1_K5.1_C5.1_H5.1_A5.1_[T5A]_[T6C]_F5.1_[T9G]_[A10C]_T5.1 (ssRNA)
RNA: B1 RNA with C28A, U29C, C30A, A31U
B16: Ic_S4_P5E.1_K5.1_C5.1_H5.1_A5.1_[T5A]_[T6A]_[A7C]_F5.1_[T9G]_[A10G]_T5.1 (ssRNA)
RNA: B1 RNA with C28A, U29A, A31U, C33G
B17: Ic_S4_P5E.1_K5.1_C5.1_H5.1_A5.1_[A7G]_F5.1_[T9C]_[A10T]_T5.1 (ssRNA)
RNA: B1 RNA with C28U, C30G, A31U, G32C, C33U
B18: Ic_S4_P5E.1_K5.1_C5.1_H5.1_A5.1_[T5A]_[T6A]_[A7C]_F5.1_[T8G]_[T9C]_[A10C]_T5.1 (ssRNA)
RNA: B1 RNA with C28A, U29A, A31G, G32C
B19: Ic_S4_P5E.1_K5.1_C5.1_H5.1_A5.1_[T5G]_[T6C]_[A7T]_F5.1_[T8C]_[T9C]_[A10C]_T5.1 (ssRNA)
RNA: B1 RNA with C28G, U29C, C30U, A31C, G32C
B20: Ic_S4_P5E.1_K5.1_C5.1_H5.1_A5.1_[T5C]_F5.1_[T9A]_[A10C]_T5.1 (ssRNA)
RNA: B1 RNA with C30A, A31U, G32A
B21: Ic_S4_P5E.1_K5.1_C5.1_H5.1_A5.1_[T5C]_[T6G]_[A7T]_F5.1_[T8C]_[T9G]_[A10T]_T5.1 (ssRNA)
RNA: B1 RNA with U29G, C30U, A31C, C33U
B22: Ic_S4_P5E.1_K5.1_C5.1_H5.1_A5.1_[T5G]_[A7C]_F5.1_[T8A]_[T9C]_[A10T]_T5.1 (ssRNA)
RNA: B1 RNA with C28G, G32C, C33U
B23: Ic_S4_P5E.1_K5.1_C5.1_H5.1_A5.1_[T5G]_[T6C]_[A7G]_F5.1_[T8C]_[T9G]_[A10T]_T5.1 (ssRNA)
RNA: B1 RNA with C28G, U29C, C30G, A31C, C33U
B24: Ic_S4_P5E.1_K5.1_C5.1_H5.1_A5.1_[T6C]_[A7T]_F5.1_[T8A]_[T9G]_[A10C]_T5.1 (ssRNA)
RNA: B1 RNA with C28U, U29C, C30U
B25: Ic_S4_P5E.1_K5.1_C5.1_H5.1_A5.1_[T5A]_[T6C]_[A7G]_F5.1_[T9A]_[A10G]_T5.1 (ssRNA)
RNA: B1 RNA with C28A, U29C, C30G, A31U, G32A, C33G
B26: Ic_S4_P5E.1_K5.1_C5.1_H5.1_A5.1_[T5G]_[T6C]_[A7C]_F5.1_[T8C]_T5.1 (ssRNA)
RNA: B1 RNA with C28G, U29C, A31C, G32U, C33A
B27: Ic_S4_P5E.1_K5.1_C5.1_H5.1_A5.1_[T5A]_F5.1_[T9C]_T5.1 (ssRNA)
RNA: B1 RNA with C28A, C30A, A31U, G32C, C33A
B28: Ic_S4_P5E.1_K5.1_C5.1_H5.1_A5.1_[T5A]_[A7T]_F5.1_[T8A]_[T9G]_[A10C]_T5.1 (ssRNA)
RNA: B1 RNA with C28A, C30U
B29: Ic_S4_P5E.1_K5.1_C5.1_H5.1_A5.1_[A7T]_F5.1_[T8C]_[T9C]_T5.1 (ssRNA)
RNA: B1 RNA with C28U, C30U, A31C, G32C, C33A
B30: Ic_S4_P5E.1_K5.1_C5.1_H5.1_A5.1_[A7T]_F5.1_[T8A]_[A10G]_T5.1 (ssRNA)
RNA: B1 RNA with C28U, C30U, G32U, C33G
B31: Ic_S4_P5E.1_K5.1_C5.1_H5.1_A5.1_[T5A]_[T6C]_[A7C]_F5.1_[T9A]_[A10T]_T5.1 (ssRNA)
RNA: B1 RNA with C28A, U29C, A31U, G32A, C33U
B32: Ic_S4_P5E.1_K5.1_C5.1_H5.1_A5.1_[T5C]_[T6G]_[A7T]_F5.1_[T8G]_[T9C]_[A10C]_T5.1 (ssRNA)
RNA: B1 RNA with U29G, C30U, A31G, G32C
B33: Ic_S4_P5E.1_K5.1_C5.1_H5.1_A5.1_[T5C]_F5.1_[T8C]_[T9A]_[A10C]_T5.1 (ssRNA)
RNA: B1 RNA with C30A, A31C, G32A
B34: Ic_S4_P5E.1_K5.1_C5.1_H5.1_A5.1_[T5G]_[T6C]_[A7T]_F5.1_[A10T]_T5.1 (ssRNA)
RNA: B1 RNA with C28G, U29C, C30U, A31U, G32U, C33U
B35: Ic_S4_P5E.1_K5.1_C5.1_H5.1_A5.1_[T5A]_[A7C]_F5.1_[T8C]_[T9G]_[A10G]_T5.1 (ssRNA)
RNA: B1 RNA with C28A, A31C, C33G
B36: Ic_S4_P5E.1_K5.1_C5.1_H5.1_A5.1_[A7G]_F5.1_[T8G]_T5.1 (ssRNA)
RNA: B1 RNA with C28U, C30G, A31G, G32U, C33A
B37: Ic_S4_P5E.1_K5.1_C5.1_H5.1_A5.1_[T5A]_[T6C]_[A7T]_F5.1_[T8C]_[T9C]_[A10G]_T5.1 (ssRNA)
RNA: B1 RNA with C28A, U29C, C30U, A31C, G32C, C33G
B38: Ic_S4_P5E.1_K5.1_C5.1_H5.1_A5.1_[T5A]_[T6C]_[A7T]_F5.1_[T8C]_[T9A]_T5.1 (ssRNA)
RNA: B1 RNA with C28A, U29C, C30U, A31C, G32A, C33A
B39: Ic_S4_P5E.1_K5.1_C5.1_H5.1_A5.1_[T5A]_[T6A]_[A7T]_F5.1_[T9C]_[A10T]_T5.1 (ssRNA)
RNA: B1 RNA with C28A, U29A, C30U, A31U, G32C, C33U
B40: Ic_S4_P5E.1_K5.1_C5.1_H5.1_A5.1_[T5C]_[T6A]_[A7T]_F5.1_[T8G]_[A10T]_T5.1 (ssRNA)
RNA: B1 RNA with U29A, C30U, A31G, G32U, C33U
B41: Ic_S4_P5E.1_K5.1_C5.1_H5.1_A5.1_[T5C]_[T6C]_[A7T]_F5.1_[T8C]_[T9C]_T5.1 (ssRNA)
RNA: B1 RNA with U29C, C30U, A31C, G32C, C33A
B42: Ic_S4_P5E.1_K5.1_C5.1_H5.1_A5.1_[T5C]_[T6A]_[A7C]_F5.1_[T9G]_[A10G]_T5.1 (ssRNA)
RNA: B1 RNA with U29A, A31U, C33G
B43: Ic_S4_P5E.1_K5.1_C5.1_H5.1_A5.1_[T5A]_[T6A]_[A7T]_F5.1_[T8C]_[T9C]_[A10G]_T5.1 (ssRNA)
RNA: B1 RNA with C28A, U29A, C30U, A31C, G32C, C33G
B44: Ic_S4_P5E.1_K5.1_C5.1_H5.1_A5.1_[T6A]_[A7G]_F5.1_[T9A]_[A10C]_T5.1 (ssRNA)
RNA: B1 RNA with C28U, U29A, C30G, A31U, G32A
B45: Ic_S4_P5E.1_K5.1_C5.1_H5.1_A5.1_[T6C]_[A7G]_F5.1_[T8C]_[T9C]_[A10G]_T5.1 (ssRNA)
RNA: B1 RNA with C28U, U29C, C30G, A31C, G32C, C33G
B46: Ic_S4_P5E.1_K5.1_C5.1_H5.1_A5.1_[T5C]_[A7T]_F5.1_[T8C]_T5.1 (ssRNA)
RNA: B1 RNA with C30U, A31C, G32U, C33A
B47: Ic_S4_P5E.1_K5.1_C5.1_H5.1_A5.1_[T5C]_[T6A]_[A7C]_F5.1_[T8C]_[A10G]_T5.1 (ssRNA)
RNA: B1 RNA with U29A, A31C, G32U, C33G
B48: Ic_S4_P5E.1_K5.1_C5.1_H5.1_A5.1_[T5A]_[T6C]_[A7T]_F5.1_[T8A]_[T9G]_[A10T]_T5.1 (ssRNA)
RNA: B1 RNA with C28A, U29C, C30U, C33U
B49: Ic_S4_P5E.1_K5.1_C5.1_H5.1_A5.1_[T5C]_F5.1_[T8A]_[T9A]_[A10T]_T5.1 (ssRNA)
RNA: B1 RNA with C30A, G32A, C33U

biological target: T1, PUF4 RNA-binding domain; assay: Mg; RNA-MaP; 20 mM Na-HEPES pH 7.4, 30 mM KOAc, 0.75 mM MgCl2, 0.1% Tween-20, 5% glycerol, 0.1 mg/mL BSA, 2 mM DTT; 25 C; 0.0125-409.6 nM protein; conditions: tags: N-His6-TEV cleaved; C-SNAP kept, Cy3B-labelled; label: tethered on chip by stalled RNA polymerase

Binder	Kd [nM]
UCUCUUUGUAUCUUGUCUCUU (ssRNA) [Ib_S1_P4E.1_K4.1_C4.1_H4.1_A4.1_[A6C]_F4.1_[A9G]_T4.1]	25.9
B1	730
B2	48.7
B3	233
B4	674
B5	141
B6	486
B7	12.3
B8	3.86
B9	24.3
B10	26.3
B11	24
B12	15.4
B13	499
B14	66.3
B15	25.7
B16	280
B17	134
B18	586
B19	658
B20	3.28
B21	167
B22	1040
B23	1620
B24	47.4
B25	114
B26	19.6

Binder	Kd [nM]
B27	113
B28	338
B29	120
B30	12.4
B31	5.91
B32	125
B33	540
B34	34.7
B35	> 2300
B36	58.8
B37	> 2300
B38	857
B39	28.2
B40	6.77
B41	198
B42	14.9
B43	254
B44	3.94
B45	1730
B46	2.44
B47	81
B48	586
B49	18.5
UCUCUUUGUAUGUUGUCUCUU (ssRNA) [Ib_S1_P4E.1_K4.1_C4.1_H4.1_A4.1_[A6G]_F4.1_[A9G]_T4.1]	218
UCUCUUUGUAAAUUCUCUCUU (ssRNA) [Ib_S1_P4E.1_K4.1_C4.1_H4.1_A4.1_[T5A]_F4.1_[A9C]_T4.1]	26.3
UCUCUUUGUAAAUUUUCUCUU (ssRNA) [Ic_S1_P4E.1_K4.1_C4.1_H4.1_A4.1_[T5A]_F4.1_[A9T]_T4.1]	18.3
UCUCUUUGUACAUUUUCUCUU (ssRNA) [Ic_S1_P4E.1_K4.1_C4.1_H4.1_A4.1_[T5C]_F4.1_[A9T]_T4.1]	5.25
